Measured values reported in the DeepSol protein solubility set.

Assay: soluble on expression in E. coli; label from the status in PepcDB or PDB records

Soluble on expression in E. coli, soluble:
HDNYADLSDTELTTLLRRYNIPHGPVVGSTRRLYEKKIFEYETQRRR
HHHHHHMSKRETFNETFLKAARGEKADHTPVWYMRQAGRSQPEYRKLKEKYGLFEITHQPELCAYVTRLPVEQYGVDAAILYKDIMTPLPSIGVDVEIKNGIGPVIDQPIRSLADIEKLGQIDPEQDVPYVLETIKLLVNEQLNVPLIGFSGAPFTLASYMTEGGPSKNYNKTKAFMYSMPDAWNLLMSKLADMIIVYVKAQIKAGAKAIQIFDSWVGALNQADYRTYIKPVMNRIFSELAKENVPLIMFGVGASHLAGDWHDLPLDVVGLDWRLGIDEARSKGITKTVQGNLDPSILLAPWEVIEQKTKEILDQGMESDGFIFNLGHGVFPDVSPEVLKKLTAFVHEYSQNKKMGQYS
HMGCAFLTYCARDSALKAQSALHEQKTLPGMNRPIQVKPADSESRGEDRKLFVGMLGKQQTDEDVRKMFEPFGTIDECTVLRGPDGTSKGCAFVKFQTHAEAQAAINTLHSSRTLPGASSSLVVKFADTEKERGLRRMQQVATQLGMFSPIALQFGAYSAYTQALMQQQAALVAAHSAYLSPMATMAAVQMQHMAAINANGLIATPITPSSGTSTPPAIAATPVSAIPAALGVNGYSPVPTQPTGQPAPDALYPNGVHPYPAQSPAAPVDPLQQAYAGMQHYTAAYPAAYSLVAPAFPQPPALVAQQPPPPPQQQQQQQQQQQQQQQREGPDGCNIFIYHLPQEFTDSEILQMFVPFGHVISAKVFVDRATNQSKCFGFVSFDNPASAQAAIQAMNGFQIGMKRLKVQLKRPKDANRPY
HMSKVPRNFRLLEELEKGEKGFGPESCSYGLADSDDITMTKWNGTILGPPHSNHENRIYSLSIDCGPNYPDSPPKVTFISKINLPCVNPTTGEVQTDFHTLRDWKRAYTMETLLLDLRKEMATPANKKLRQPKEGETF
IDKITYPTRIGAVVFPHKKHQDALGECRGCHEKGPGRIDGFDKVMAHGKGCKGCHEEMKIGPVRCGDCHKGGSTH
IDPFTADAGHTEFTDEVYQNESRYPGGDWKPAEDTYTDANGDKAASPSELTCPPGWEWEDDAWSYDINRAVDEKGWEYGITIPPDHKPKSWVAAEKMYHTHRRRRLVRKRKKDLTQTASSTAR
IHHLPPVKAPLQTKKKIMKHCFLCGKKTGLATSFECRCGNNFCASHRYAEAHGCNYDYKSAGRRYLEEANPV
IIGGQKAKMGNFPWQVFTNIHGRGGGALLGDRWILTAAHTLYPKEHEAQSNASLDVFLGHTNVEELMKLGNHPIRRVSVHPDYRQDESYNFEGDIALLELENSVTLGPNLLPICLPDNDTFYDLGLMGYVSGFGVMEEKIAHDLRFVRLPVANPQACENWLRGKNRMDVFSQNMFCAGHPSLKQDACQGDSGGVFAVRDPNTDRWVATGIVSWGIGCSRGYGFYTKVLNYVDWIKKEMEEED

Soluble on expression in E. coli, not soluble:
HAEVIASGRLEKCVVDGVTEELDCQEKVVVTLTVGNGQSLQTEALEFSLSCLNSPDGRCPCSCSAADPTCACRDLAAPLRVSLTKSPLWASYPLQYLSSFNWKPLEVILRPSNKVCKDGDWEDSPTCGWFSQGGVRVADSQGFCCECSSSQVWDDTFGSSKERTRANLDCDFWSDPLDILIGRKPVSAHCLTFDPQWYSGYELGAASLQFEIAITVEVPTAPSPTTATTSATPRTNNSSSANSTNSTNSPAPQFLSPPAPSTREVLHLGPSVPLASSASRLLSAKLLGDLAMYTQLPAISNQVLMVPQPPAAAAATGSPLDATLATNRSAWMLLDKTMLSMDGLACDKVGTGFSAFRYQPSGCGRAPQACLSGQLKDLWEADLARIADGRVPLYMITRFTGGSDTTLQSFSGGPLSFALPVTSHSQSLVTLSVAADGVRLVTNRSPGKITGAAVCRFAGTSCGGFEAVAARGYIYVNITNTGRLDSDYTLTVSNCSSNVRPIEARTLAVRAGSAASLDPPMELYVEDQAAAAARTCTVSLYDSVGAVTDSLTLSFYTNATQLVVKPSGGYNGTGDGAGVKRNGTDCSTACTNPIDVLCFVTKKCWSKFGR
HHPEAGNFKQRVILSHVGFDRPTVLVTEGYTAHYATHPRYQEELSKLFNANLVFVEYRYFGESMPKPCNWDYLTVENSLYDLHHVTTTLKQLYDEKWIATGISKGGQTTMFYRTYFPDDVDISVPYVAPLNQSLEDGRHEPFIANKVSTPENRKRVENFQLEVLKRKSRLLPIFEKYCSDKGYTFRIPIAEVYDFNVLEYSFALWQWGTPVNKIPETNADDHTLFKHFMAICEPDYFSEQSPYPSFNVQAAKELGYYGYDIKPFKKYLTIKSSRDYLHKVMLPPELSNLKFDKTLYNKVVKFLKENDPEMIYIYGGDDPWTASGVTWLKNKKNIKVYVLPGGSHTTRIGSFDTDTQEEIKTQINAWLNKE
HITHKLLIPAWDGIVLEGLSVKERKTTNNTVVLALIGHFQTEHHYLNTSFHEFQELFGTELVLINHRNYSNRSNKFANSAEEIARDVLAFAKHFRQKNKKIVLYGMCGGAAHMILAA
HPGEVIVLIHGLMRTYVSMKPLKAYLEAQGYQVYLYKYPSARYNIQEHGVYLNQFITTILENNPAIKIHFVTHSLGGIIVREALSKLSQKQLKHVGYLIMLAPPNQGSKLAKFSIKLFPMISYFIKPLAELSSEQTSYVHRVPVPDIKMGIIAGRFDAKVPPDYARLQGQTEQVIINNTHTFIMYDSKVKKLVLSFLEKGKFE
HQCQGCGSTQLISVGVGTEQLETQLTNLFPEYKTVRIDRDSTRRKGSLEDYLEAIKNNEYQILIGTQMLAKGHHFPNVTLVGLIDVDSSLFSSDFRAPERLAQLFIQVAGRAGRASKPGEVILQTHHPE
HWCNIAGWPDFDTFLATMDHKHRKNIRQERAKVARSGVRIQSIHGDEATPIELKAMHHFYVNTFHQYGNAPALTLPFLTHLAKTIPRQLVLFMATLNGKLIGGSLCLRSAKTLYGRHWGGAALPGLHFETCYYQGIDYCLREGLTRFEPGAQGKHKIARG
IADVVPLDQNNRILAYQGLMRIRARHCRLGIIALAEVANRNVEQFTSSDLGFCIGPRLNAAGRLDNMSIGVELLLANEMSKARELALDLDQLNQTRKEIEAGMKLEAIKICQNLTALFKELPYGITLYQPDWHQGVLGIV
IDEKPSDLLLDRIESRFNFDVPRGEGHNTVQAIKAMEEGQAKVFIGLGGNFAQATPDTERTHNAMRNCNLTVHISTKLNRSHLVTGKDALILPCLGRTEIDQQATGPQGVTVEDTFSMVHISFGQLKPRSEHLRSEPAIIAGIANATLGAKPIDWLWAIEDYDRIRDLIADTIPGFTDFNHKLKHPGGFHLVNPAAERRWNTPSGKAQFSSSELPKQLISEAILEKGQKPDLILQTMRSHDQYNTTLYGLNDRYRGVFGMREVLFINEADIRKLGFEPGDKVDMVSLWEDGVERRVSGFTLVAYDVPAGQAAAYYPETNPLVPLDSYGDRTFTPTSKFIAIKLEKSTSNKIALVETE
IDQLNRNQLDLGMCYVDQVNTAYFDVIELDSTKLGVLFDERHFDFAESEVLWESLNNIPLGLLSKGMHYRHSIDLSFVSKGLVPQTVIESNSTFHLIQAVTSGLCCAIMPLNCGLEELNDTLRIIPIEEAAVHAPLGLLKRKQEPFSALTDQCFAEAKNIFNR
IGKVNYNIGFNLSDNRAKVISYPNASKALWDSNGNTLYYNGMTIGEIWGYETEGIAKTDAQMTEWLASNDQSKIGSVWGAGDIMYRDLNGDGIVDKGNSTATDHGDLKKIGNSTPRLRFGLSLGADWKGFDIQMFFQGVMKRDLWLSGPMFWGADGGEWQSVGFDEHLDYFRPENTTSIFGANLNSYYPKAYLGDKGNKNKQTQTRYLQNGAYMRMKNLQIGYTFPKAWMNKAKIEKLRIYVSGENLFTISGIADMFDPEATAGNGFSNGKTYPLSKTISFGLNITL
IHVNSKEEAIISLVDVVSKEGYLIDKNQFLKDVLKREETLSTYIGHGIGLPHSQSVGVKNSCITIGKLDTPIEWTEEGEKVDLIFLISVTKDNENNLHLKILSKLARLLMHESFRNQIRCSDEQTVYNLIKEKIEE
